Test results published in article PMC3889140 (Bioorganic & medicinal chemistry letters, 2013).
“Also recorded” adds a separate entry of the source. Positions of bridges follow the written chain, without caps; N, C: chain ends. Non-standard residues stand in square brackets, D forms with d. Residues, ends and D or L forms follow the SMILES beside them.

Key:
B16/F1 melanoma cells = experiment: Cellular internalization in B16/F1 melanoma cells; type: cell-based, murine
in vivo = experiment: in vivo; parameters: species or system C57 mice; details: C57, mouse, iv, total radioactivity; for tissue uptake dose at 2 h: percent injected dose
[1] = system: B16/F1 melanoma-bearing C57 mouse; experiment: SPECT/CT melanoma imaging; type: in vivo; details: flank B16/F1 melanoma, 2 h post-injection, about 7.4 MBq, one mouse
[2] = 0.037 MBq, Kidneys (renal) uptake
[3] = 0.037 MBq, Uptake ratio Tumor/Lung

CC(C)[C@H](NC(=O)[C@@H]1CCCN1C(=O)[C@H](CCCNC(=N)N)NC(=O)[C@H](CS)NC(=O)[C@H](Cc1c[nH]c2ccccc12)NC(=O)[C@H](CCCNC(=N)N)NC(=O)[C@@H](Cc1ccccc1)NC(=O)[C@H](Cc1c[nH]cn1)NC(=O)[C@H](CCC(=O)O)NC(=O)[C@H](CS)NC(=O)[C@H](CS)NC(=O)[C@H](CCCNC(=N)N)NC(=O)[C@@H]1CC(=O)N[C@@H](CCCNC(=N)N)C(=O)N[C@@H](C)C(=O)N[C@@H](CC(=O)O)C(=O)N[C@H](Cc2ccc(O)cc2)C(=O)N1)C(N)=O [^99mTc-RAD-Arg-(Arg^11)CCMSH, metal not drawn] (RAD[dY]DRCCEH[dF]RWCRPV-NH2; lactam N-5; C-terminus assumed)
activity internalized (B16/F1 melanoma cells; 20 min post incubation): Approximately 77.81 ± 4.46% | activity internalized (B16/F1 melanoma cells; after 2 h incubation): 81.26 ± 4.81% | tissue uptake at 0.5 h (in vivo; 0.037 MBq, Blood uptake): 3.43 ± 0.37 %ID/g | tissue uptake at 2 h (in vivo; 0.037 MBq, Blood uptake): 0.59 ± 0.17 %ID/g | tissue uptake at 4 h (in vivo; 0.037 MBq, Blood uptake): 0.1 ± 0.06 %ID/g | tissue uptake at 24 h (in vivo; 0.037 MBq, Blood uptake): 0.04 ± 0.01 %ID/g | tissue uptake at 0.5 h (in vivo; 0.037 MBq, Bone uptake): 1.97 ± 0.22 %ID/g | tissue uptake at 2 h (in vivo; 0.037 MBq, Bone uptake): 0.64 ± 0.25 %ID/g | tissue uptake at 4 h (in vivo; 0.037 MBq, Bone uptake): 0.34 ± 0.13 %ID/g | tissue uptake at 24 h (in vivo; 0.037 MBq, Bone uptake): 0.14 ± 0.04 %ID/g | tissue uptake at 0.5 h (in vivo; 0.037 MBq, Brain uptake): 0.16 ± 0.04 %ID/g | tissue uptake at 2 h (in vivo; 0.037 MBq, Brain uptake): 0.04 ± 0.02 %ID/g | tissue uptake at 4 h (in vivo; 0.037 MBq, Brain uptake): 0.02 ± 0.02 %ID/g | tissue uptake at 24 h (in vivo; 0.037 MBq, Brain uptake): 0.02 %ID/g | tissue uptake at 0.5 h (in vivo; 0.037 MBq, Heart uptake): 1.71 ± 0.58 %ID/g | tissue uptake at 2 h (in vivo; 0.037 MBq, Heart uptake): 0.5 ± 0.14 %ID/g | tissue uptake at 4 h (in vivo; 0.037 MBq, Heart uptake): 0.21 ± 0.03 %ID/g | tissue uptake at 24 h (in vivo; 0.037 MBq, Heart uptake): 0.1 ± 0.02 %ID/g | tissue uptake at 0.5 h (in vivo; [2]): 41.2 ± 4.48 %ID/g | tissue uptake at 2 h (in vivo; [2]): 35.6 ± 9.61 %ID/g | tissue uptake at 4 h (in vivo; [2]): 26.5 ± 0.62 %ID/g | tissue uptake at 24 h (in vivo; [2]): 12 ± 2.29 %ID/g | tissue uptake at 0.5 h (in vivo; 0.037 MBq, Liver uptake): 3.07 ± 0.08 %ID/g | tissue uptake at 2 h (in vivo; 0.037 MBq, Liver uptake): 1.88 ± 0.35 %ID/g | tissue uptake at 4 h (in vivo; 0.037 MBq, Liver uptake): 1.47 ± 0.11 %ID/g | tissue uptake at 24 h (in vivo; 0.037 MBq, Liver uptake): 1.18 ± 0.28 %ID/g | tissue uptake at 0.5 h (in vivo; 0.037 MBq, Lung uptake): 5.42 ± 0.7 %ID/g | tissue uptake at 2 h (in vivo; 0.037 MBq, Lung uptake): 1.15 ± 0.22 %ID/g | tissue uptake at 4 h (in vivo; 0.037 MBq, Lung uptake): 0.4 ± 0.16 %ID/g | tissue uptake at 24 h (in vivo; 0.037 MBq, Lung uptake): 0.16 ± 0.03 %ID/g | tissue uptake at 0.5 h (in vivo; 0.037 MBq, Muscle uptake): 0.8 ± 0.46 %ID/g | tissue uptake at 2 h (in vivo; 0.037 MBq, Muscle uptake): 0.2 ± 0.15 %ID/g | tissue uptake at 4 h (in vivo; 0.037 MBq, Muscle uptake): 0.15 ± 0.1 %ID/g | tissue uptake at 24 h (in vivo; 0.037 MBq, Muscle uptake): 0.03 ± 0.02 %ID/g | tissue uptake at 0.5 h (in vivo; 0.037 MBq, Pancreas uptake): 1.06 ± 0.33 %ID/g | tissue uptake at 2 h (in vivo; 0.037 MBq, Pancreas uptake): 0.2 ± 0.11 %ID/g | tissue uptake at 4 h (in vivo; 0.037 MBq, Pancreas uptake): 0.1 ± 0.05 %ID/g | tissue uptake at 24 h (in vivo; 0.037 MBq, Pancreas uptake): 0.1 ± 0.05 %ID/g | tissue uptake at 0.5 h (in vivo; 0.037 MBq, Skin uptake): 5.43 ± 0.41 %ID/g | tissue uptake at 2 h (in vivo; 0.037 MBq, Skin uptake): 1.1 ± 0.39 %ID/g | tissue uptake at 4 h (in vivo; 0.037 MBq, Skin uptake): 0.53 ± 0.09 %ID/g | tissue uptake at 24 h (in vivo; 0.037 MBq, Skin uptake): 0.24 ± 0.1 %ID/g | tissue uptake at 0.5 h (in vivo; 0.037 MBq, Spleen uptake): 2.12 ± 0.57 %ID/g | tissue uptake at 2 h (in vivo; 0.037 MBq, Spleen uptake): 0.61 ± 0.31 %ID/g | tissue uptake at 4 h (in vivo; 0.037 MBq, Spleen uptake): 0.25 ± 0.12 %ID/g | tissue uptake at 24 h (in vivo; 0.037 MBq, Spleen uptake): 0.41 ± 0.14 %ID/g | tissue uptake at 0.5 h (in vivo; 0.037 MBq, Stomach uptake): 3.13 ± 0.62 %ID/g | tissue uptake at 2 h (in vivo; 0.037 MBq, Stomach uptake): 1.63 ± 0.43 %ID/g | tissue uptake at 4 h (in vivo; 0.037 MBq, Stomach uptake): 1.41 ± 0.74 %ID/g | tissue uptake at 24 h (in vivo; 0.037 MBq, Stomach uptake): 0.28 ± 0.09 %ID/g | tissue uptake at 0.5 h (in vivo; 0.037 MBq, Tumor uptake): 8.46 ± 3.7 %ID/g | tissue uptake at 2 h (in vivo; 0.037 MBq, Tumor uptake): 18 ± 4.96 %ID/g | tissue uptake at 4 h (in vivo; 0.037 MBq, Tumor uptake): 14.1 ± 2.9 %ID/g | tissue uptake at 24 h (in vivo; 0.037 MBq, Tumor uptake): 10.2 ± 2.66 %ID/g | tissue to tissue ratio at 0.5 h (in vivo; [3]): 1.56 | tissue to tissue ratio at 2 h (in vivo; [3]): 15.6 | tissue to tissue ratio at 4 h (in vivo; [3]): 35.2 | tissue to tissue ratio at 24 h (in vivo; [3]): 63.5 | tissue uptake dose at 2 h (in vivo; Bladder): 77.8 ± 2.34 %ID | tissue uptake dose at 2 h (in vivo; Intestines): 2.5 ± 0.16 %ID | tissue to tissue ratio at 2 h (in vivo; Uptake ratio Tumor/Blood): 2.41 | tissue to tissue ratio at 2 h (in vivo; Uptake ratio Tumor/Kidneys): 0.09 | tissue to tissue ratio at 2 h (in vivo; Uptake ratio Tumor/Liver): 1.12 | tissue to tissue ratio at 2 h (in vivo; Uptake ratio Tumor/Lung): 1.73 | tissue to tissue ratio at 2 h (in vivo; Uptake ratio Tumor/Muscle): 10.4 | melanoma imaging by SPECT/CT [1]: visualized clearly; also recorded: clearly imaged
